Starred links: 1 amine or outer side, 2 acyl side, 3 side chain; linkers in the order of their positions; H or OH if unused. Non-standard residues stand in square brackets, D forms with d. Groups on a side chain read outwards from the residue. No end group written: not given here. *: point of attachment. 2OEGgE = O=C(CC[C@H](N[*:1])C(=O)O)NCCOCCOCC(=O)NCCOCCOCC(=O)[*:2]; C16 diacid = O=C(O)CCCCCCCCCCCCCCC(=O)*; C15 diacid = O=C(O)CCCCCCCCCCCCCC(=O)*; γGlu = O=C(O)[C@H](CCC(=O)[*:2])N[*:1]; NMeY = CN[C@@H](Cc1ccc(O)cc1)C(=O)O; AEEA = NCCOCCOCC(=O)O; Aib = CC(C)(N)C(=O)O
Tests used:
[1] = biological target: T1, full-length human GIPR with an N-terminal FLAG tag (human, UniProt P48546 22-466); assay: cell-based or functional assay
T1 sequence (looked up): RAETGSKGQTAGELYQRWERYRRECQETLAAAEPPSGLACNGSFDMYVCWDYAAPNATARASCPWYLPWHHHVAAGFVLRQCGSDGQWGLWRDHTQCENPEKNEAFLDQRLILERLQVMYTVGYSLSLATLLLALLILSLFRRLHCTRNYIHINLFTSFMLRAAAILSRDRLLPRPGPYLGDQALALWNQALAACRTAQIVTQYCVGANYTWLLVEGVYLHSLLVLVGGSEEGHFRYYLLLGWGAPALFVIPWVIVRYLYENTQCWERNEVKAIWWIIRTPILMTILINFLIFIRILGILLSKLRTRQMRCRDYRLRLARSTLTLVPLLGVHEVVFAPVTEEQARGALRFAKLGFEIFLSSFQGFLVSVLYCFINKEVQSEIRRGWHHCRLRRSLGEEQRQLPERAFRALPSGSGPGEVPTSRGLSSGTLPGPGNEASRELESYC

[2] = biological target: full-length human GLP-1R with an N-terminal FLAG tag (human, UniProt P43220 24-463); assay: cell-based or functional assay

[NMeY][Aib]EGTFISDYSIAK([G5-γGlu-γGlu-C15 diacid])DR[Aib]AQ[Aib]NFVNWLLAQSPSSGAPPPS-NH2 [Compound 81]
Human GIPR cAMP, HEK293T EC50 [1]: 0.0002 nM | Human GLP1R cAMP HEK293T EC50 [2]: 1000 nM

B1: Compound 75 (peptide)
peptide: [NMeY][Aib]EGTFISDYSIALDR[Aib]K([2OEGgE-C15 diacid])Q[Aib]DFVNWLLAQRPSSGAPPPS-NH2
modifications: N-terminus assumed
SMILES: CC[C@H](C)[C@H](NC(=O)[C@H](CO)NC(=O)[C@H](Cc1ccc(O)cc1)NC(=O)[C@H](CC(=O)O)NC(=O)[C@H](CO)NC(=O)[C@@H](NC(=O)[C@H](Cc1ccccc1)NC(=O)[C@@H](NC(=O)CNC(=O)[C@H](CCC(=O)O)NC(=O)C(C)(C)NC(=O)[C@H](Cc1ccc(O)cc1)NC)[C@@H](C)O)[C@@H](C)CC)C(=O)N[C@@H](C)C(=O)N[C@@H](CC(C)C)C(=O)N[C@@H](CC(=O)O)C(=O)N[C@@H](CCCNC(=N)N)C(=O)NC(C)(C)C(=O)N[C@@H](CCCCNC(=O)COCCOCCNC(=O)COCCOCCNC(=O)CC[C@H](NC(=O)CCCCCCCCCCCCCC(=O)O)C(=O)O)C(=O)N[C@@H](CCC(N)=O)C(=O)NC(C)(C)C(=O)N[C@@H](CC(=O)O)C(=O)N[C@@H](Cc1ccccc1)C(=O)N[C@H](C(=O)N[C@@H](CC(N)=O)C(=O)N[C@@H](Cc1c[nH]c2ccccc12)C(=O)N[C@@H](CC(C)C)C(=O)N[C@@H](CC(C)C)C(=O)N[C@@H](C)C(=O)N[C@@H](CCC(N)=O)C(=O)N[C@@H](CCCNC(=N)N)C(=O)N1CCC[C@H]1C(=O)N[C@@H](CO)C(=O)N[C@@H](CO)C(=O)NCC(=O)N[C@@H](C)C(=O)N1CCC[C@H]1C(=O)N1CCC[C@H]1C(=O)N1CCC[C@H]1C(=O)N[C@@H](CO)C(N)=O)C(C)C
Human GIPR cAMP, HEK293T EC50 [1]: 0.0011 nM | Human GLP1R cAMP HEK293T EC50 [2]: 1000 nM

B2: Compound 76 (peptide)
peptide: [NMeY][Aib]EGTFISDYSIALDR[Aib]K([AEEA-AEEA-γGlu-C15 diacid])Q[Aib]DFVNWLLAQSPSSGAPPPS-NH2
modifications: N-terminus assumed
SMILES: CC[C@H](C)[C@H](NC(=O)[C@H](CO)NC(=O)[C@H](Cc1ccc(O)cc1)NC(=O)[C@H](CC(=O)O)NC(=O)[C@H](CO)NC(=O)[C@@H](NC(=O)[C@H](Cc1ccccc1)NC(=O)[C@@H](NC(=O)CNC(=O)[C@H](CCC(=O)O)NC(=O)C(C)(C)NC(=O)[C@H](Cc1ccc(O)cc1)NC)[C@@H](C)O)[C@@H](C)CC)C(=O)N[C@@H](C)C(=O)N[C@@H](CC(C)C)C(=O)N[C@@H](CC(=O)O)C(=O)N[C@@H](CCCNC(=N)N)C(=O)NC(C)(C)C(=O)N[C@@H](CCCCNC(=O)COCCOCCNC(=O)COCCOCCNC(=O)CC[C@H](NC(=O)CCCCCCCCCCCCCC(=O)O)C(=O)O)C(=O)N[C@@H](CCC(N)=O)C(=O)NC(C)(C)C(=O)N[C@@H](CC(=O)O)C(=O)N[C@@H](Cc1ccccc1)C(=O)N[C@H](C(=O)N[C@@H](CC(N)=O)C(=O)N[C@@H](Cc1c[nH]c2ccccc12)C(=O)N[C@@H](CC(C)C)C(=O)N[C@@H](CC(C)C)C(=O)N[C@@H](C)C(=O)N[C@@H](CCC(N)=O)C(=O)N[C@@H](CO)C(=O)N1CCC[C@H]1C(=O)N[C@@H](CO)C(=O)N[C@@H](CO)C(=O)NCC(=O)N[C@@H](C)C(=O)N1CCC[C@H]1C(=O)N1CCC[C@H]1C(=O)N1CCC[C@H]1C(=O)N[C@@H](CO)C(N)=O)C(C)C
Human GIPR cAMP, HEK293T EC50 [1]: 0.0005 nM | Human GLP1R cAMP HEK293T EC50 [2]: 295 nM

[NMeY][Aib]EGTFISDYSIALDR[Aib]K([G5gE-C15 diacid])Q[Aib]DFVNWLLAQSPSSGAPPPS-NH2 [Compound 74]
Human GIPR cAMP, HEK293T EC50 [1]: 0.0004 nM | Human GLP1R cAMP HEK293T EC50 [2]: 550 nM

[NMeY][Aib]EGTFISDYSIAK([G4-γGlu-C15 diacid])DR[Aib]AQ[Aib]NFVNWLLAQSPSSGAPPPS-NH2 [Compound 78]
Human GIPR cAMP, HEK293T EC50 [1]: 0.0003 nM | Human GLP1R cAMP HEK293T EC50 [2]: 112 nM

[NMeY]SEGTFISDYSIAK([2OEG-γGlu-C16 diacid])DRIHQ[Aib]NFVNWLLAQK (not fully specified (N-terminus)) [Compound 7]
Human GIPR cAMP, HEK293T EC50 [1]: 0.0016 nM | Human GLP1R cAMP HEK293T EC50 [2]: 257 nM

[NMeY][Aib]EGTFISDYSIAK([G5-γGlu-C15 diacid])DR[Aib]AQ[Aib]DFVNWLLAQRPSSGAPPPS-NH2 [Compound 80]
Human GIPR cAMP, HEK293T EC50 [1]: 0.0004 nM | Human GLP1R cAMP HEK293T EC50 [2]: 468 nM

B3: Compound 88 (peptide)
peptide: [NMeY][Aib]EGTFISDYSIALDR[Aib]AQ[Aib]NFVNWLLAK([AEEA-AEEA-γGlu-γGlu-C15 diacid])RPSSGAPPPS-NH2
modifications: N-terminus assumed
SMILES: CC[C@H](C)[C@H](NC(=O)[C@H](CO)NC(=O)[C@H](Cc1ccc(O)cc1)NC(=O)[C@H](CC(=O)O)NC(=O)[C@H](CO)NC(=O)[C@@H](NC(=O)[C@H](Cc1ccccc1)NC(=O)[C@@H](NC(=O)CNC(=O)[C@H](CCC(=O)O)NC(=O)C(C)(C)NC(=O)[C@H](Cc1ccc(O)cc1)NC)[C@@H](C)O)[C@@H](C)CC)C(=O)N[C@@H](C)C(=O)N[C@@H](CC(C)C)C(=O)N[C@@H](CC(=O)O)C(=O)N[C@@H](CCCNC(=N)N)C(=O)NC(C)(C)C(=O)N[C@@H](C)C(=O)N[C@@H](CCC(N)=O)C(=O)NC(C)(C)C(=O)N[C@@H](CC(N)=O)C(=O)N[C@@H](Cc1ccccc1)C(=O)N[C@H](C(=O)N[C@@H](CC(N)=O)C(=O)N[C@@H](Cc1c[nH]c2ccccc12)C(=O)N[C@@H](CC(C)C)C(=O)N[C@@H](CC(C)C)C(=O)N[C@@H](C)C(=O)N[C@@H](CCCCNC(=O)COCCOCCNC(=O)COCCOCCNC(=O)CC[C@H](NC(=O)CC[C@H](NC(=O)CCCCCCCCCCCCCC(=O)O)C(=O)O)C(=O)O)C(=O)N[C@@H](CCCNC(=N)N)C(=O)N1CCC[C@H]1C(=O)N[C@@H](CO)C(=O)N[C@@H](CO)C(=O)NCC(=O)N[C@@H](C)C(=O)N1CCC[C@H]1C(=O)N1CCC[C@H]1C(=O)N1CCC[C@H]1C(=O)N[C@@H](CO)C(N)=O)C(C)C
Human GIPR cAMP, HEK293T EC50 [1]: 0.0006 nM | Human GLP1R cAMP HEK293T EC50 [2]: 166 nM

[NMeY][Aib]EGTFISDYSIALDR[Aib]AQ[Aib]NFVNWLLAQK([OEGgEgE-C15 diacid])PSSGAPPPS-NH2 [Compound 70]
Human GIPR cAMP, HEK293T EC50 [1]: 0.0009 nM | Human GLP1R cAMP HEK293T EC50 [2]: 91.2 nM

[NMeY][Aib]EGTFISDYSIAK([G5-γGlu-C15 diacid])DR[Aib]AQ[Aib]NFVNWLLAQSPSSGAPPPS-NH2 [Compound 82]
Human GIPR cAMP, HEK293T EC50 [1]: 0.0003 nM | Human GLP1R cAMP HEK293T EC50 [2]: 295 nM

[NMeY][Aib]EGTFISDYSIALDRIK([AEEA-AEEA-γGlu-C16 diacid])Q[Aib]NFVNWLLAQK [Compound 8]
Human GIPR cAMP, HEK293T EC50 [1]: 0.0001 nM | Human GLP1R cAMP HEK293T EC50 [2]: 100 nM

[NMeY][Aib]EGTFISDYSIALDR[Aib]AQ[Aib]KFVNWLLAQS-NH2 (not fully specified (residue 21)) [Compound 85]
Human GIPR cAMP, HEK293T EC50 [1]: 0.0009 nM | Human GLP1R cAMP HEK293T EC50 [2]: 63.1 nM

[NMeY]GEGTFISDYSIAK([2OEGgE-C16 diacid])DRIHQ[Aib]NFVNWLLAQK (not fully specified) [Compound 6]
Human GIPR cAMP, HEK293T EC50 [1]: 0.0537 nM | Human GLP1R cAMP HEK293T EC50 [2]: 692 nM

[NMeY][Aib]EGTFISDYSIALDR[Aib]K([G5gE-C15 diacid])Q[Aib]DFVNWLLAQRPSSGAPPPS-NH2 [Compound 73]
Human GIPR cAMP, HEK293T EC50 [1]: 0.0005 nM | Human GLP1R cAMP HEK293T EC50 [2]: 1000 nM

[NMeY][Aib]EGTFISDYSIAKDR[Aib]AQ[Aib]NFVNWLLAQRPSSGAPPPS-NH2 (not fully specified (residue 14)) [Compound 77]
Human GIPR cAMP, HEK293T EC50 [1]: 0.0002 nM | Human GLP1R cAMP HEK293T EC50 [2]: 331 nM

[NMeY][Aib]EGTFISDYSIALDR[Aib]K([G5gE-C15 diacid])Q[Aib]NFVNWLLAQSPSSGAPPPS-NH2 [Compound 71]
Human GIPR cAMP, HEK293T EC50 [1]: 0.0006 nM | Human GLP1R cAMP HEK293T EC50 [2]: 955 nM
